Measured values as given in PMC8384837, “Expanding the binding specificity for RNA recognition by a PUF domain”.

Experiments:
PUF design 2 = PUF design 2 (human, UniProt Q14671 828-1176, C935T;R936H;Q939E;N971T;H972F;Q975R); test: EMSA; 10 mM HEPES pH 7.3, 50 mM NaCl, 2 mM DTT, 0.05% Tween 20, 0.1 mg/ml BSA, 0.1 mg/ml yeast tRNA; ~10 nM RNA, 0-1 uM protein, 1 h on ice; 1.2% agarose gel, 1x TBE, room temperature; conditions: protein: recombinant; tags: N-terminal GST (pGEX-6P-1) removed by HRV3C protease; label: 5' 32P
PUF variant QFR/VFQ = PUF variant QFR/VFQ (human, UniProt Q14671 828-1176, S863Q;R864F;Q867R;N899V;Y900F); test: as above; conditions: protein: recombinant; tags: N-terminal GST (pGEX-6P-1) removed by HRV3C protease; label: 5' 32P
PUF variant QFR/VFQ, sequence (Q14671 828-1176 S863Q/R864F/Q867R/N899V/Y900F): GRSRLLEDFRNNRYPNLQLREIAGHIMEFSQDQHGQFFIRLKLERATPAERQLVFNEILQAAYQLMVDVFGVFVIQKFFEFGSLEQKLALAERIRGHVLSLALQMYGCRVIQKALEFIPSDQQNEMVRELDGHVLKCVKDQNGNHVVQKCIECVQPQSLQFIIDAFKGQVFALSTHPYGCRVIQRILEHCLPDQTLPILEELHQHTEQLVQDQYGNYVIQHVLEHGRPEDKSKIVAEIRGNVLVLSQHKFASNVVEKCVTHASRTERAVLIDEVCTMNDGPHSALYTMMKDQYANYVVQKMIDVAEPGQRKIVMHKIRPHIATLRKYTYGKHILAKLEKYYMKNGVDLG

PUF design 2, sequence (Q14671 828-1176 C935T/R936H/Q939E/N971T/H972F/Q975R): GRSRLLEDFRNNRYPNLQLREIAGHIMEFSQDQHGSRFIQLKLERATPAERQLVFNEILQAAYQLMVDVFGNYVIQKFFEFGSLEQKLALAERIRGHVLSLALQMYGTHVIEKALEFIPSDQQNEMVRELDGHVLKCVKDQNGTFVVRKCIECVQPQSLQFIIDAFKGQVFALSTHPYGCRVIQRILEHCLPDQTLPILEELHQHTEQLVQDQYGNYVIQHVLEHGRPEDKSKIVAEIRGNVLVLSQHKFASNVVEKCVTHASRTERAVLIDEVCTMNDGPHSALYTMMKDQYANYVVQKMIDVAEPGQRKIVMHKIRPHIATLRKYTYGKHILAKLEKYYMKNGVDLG

B1: wild-type NRE RNA (ssRNA)
RNA: GGUAAGUGUAAAUAGUCUGCAU
B1: no binding (PUF design 2); no binding (PUF variant QFR/VFQ).

B2: design 2 target RNA (ssRNA)
RNA: GGUAAGUGUACGUAGUCUGCAU
In the case of B2, the Kd (PUF design 2) is reported as about 45 nM.

B3: QFR/VFQ target RNA (ssRNA)
RNA: GGUAAGUGUAAAACGUCUGCAU
For B3, the Kd (PUF variant QFR/VFQ) was about 110 nM.
